Experimental findings from patent US20240318215A1 are described below.

Test [1] concerns the target pMag fused to C-terminal part of split T7 RNA polymerase, as carried on the pT7-Opto plasmid. As to the kind of experiment: cell-based or functional assay.
Test [2] concerns the target pMag (F1) fused to second half of 563 T7RNAP non-star variant. In words: cell-based or functional assay.

Chain of pMag fused to C-terminal part of split T7 RNA polymerase, as carried on the pT7-Opto plasmid (chain, as listed by the source limits assumed): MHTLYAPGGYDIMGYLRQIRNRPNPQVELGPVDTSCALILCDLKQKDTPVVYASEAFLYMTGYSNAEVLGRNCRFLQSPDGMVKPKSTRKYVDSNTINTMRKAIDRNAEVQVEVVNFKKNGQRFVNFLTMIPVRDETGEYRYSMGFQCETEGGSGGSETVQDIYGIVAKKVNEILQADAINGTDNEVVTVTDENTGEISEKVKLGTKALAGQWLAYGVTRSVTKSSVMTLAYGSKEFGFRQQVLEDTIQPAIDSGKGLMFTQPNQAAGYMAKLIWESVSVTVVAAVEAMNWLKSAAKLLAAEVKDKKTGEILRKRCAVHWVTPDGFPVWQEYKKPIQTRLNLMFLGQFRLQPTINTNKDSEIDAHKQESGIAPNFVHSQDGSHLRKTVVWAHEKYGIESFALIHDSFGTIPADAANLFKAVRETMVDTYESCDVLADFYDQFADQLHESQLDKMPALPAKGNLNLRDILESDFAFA
Chain of pMag (F1) fused to second half of 563 T7RNAP non-star variant (chain, as listed by the source mutant limits assumed): as the sequence (chain, as listed by the source limits assumed) above, with S225R counted along it

B1: N-terminal part of split T7 RNA polymerase (563 split) fused to nMag (protein)
chain: MNTINIAKNDFSDIELAAIPFNTLADHYGERLAREQLALEHESYEMGEARFRKMFERQLKAGEVADNAAAKPLITTLLPKMIARINDWFEEVKAKRGKRPTAFQFLQEIKPEAVAYITIKTTLACLTSADNTTVQAVASAIGRAIEDEARFGRIRDLEAKHFKKNVEEQLNKRVGHVYKKAFMQVVEADMLSKGLLGGEAWSSWHKEDSIHVGVRCIEMLIESTGMVSLHRQNAGVVGQDSETIELAPEYAEAIATRAGALAGISPMFQPCVVPPKPWTGITGGGYWANGRRPLALVRTHSKKALMRYEDVYMPEVYKAINIAQNTAWKINKKVLAVANVITKWKHCPVEDIPAIEREELPMKPEDIDMNPEALTAWKRAAAAVYRKDKARKSRRISLEFMLEQANKFANHKAIWFPYNMDWRGRVYAVSMFNPQGNDMTKGLLTLAKGKPIGKEGYYWLKIHGANCAGVDKVPFPERIKFIEENHENIMACAKSPLENTWWAEQDSPFCFLAFCFEYAGVQHHGLSYNCSLPLAFDGSCSGIQHFSAMLRDEVGGRAVNLLPGGSGGHTLYAPGGYDIMGYLDQIGNRPNPQVELGPVDTSCALILCDLKQKDTPIVYASEAFLYMTGYSNAEVLGRNCRFLQSPDGMVKPKSTRKYVDSNTINTIRKAIDRNAEVQVEVVNFKKNGQRFVNFLTIIPVRDETGEYRYSMGFQCETE
In test [1], B1 displayed an average pixel intensity (16-bit fluorescence scan) of the blue-light-exposed region of the pT7-Opto pellicle (pixel intensity (16-bit)) of 10400; an average pixel intensity (16-bit fluorescence scan) of the unexposed region of the pT7-Opto pellicle (pixel intensity (16-bit)) of 5520; an average red fluorescence of the light-exposed against the unexposed area of a K. rhaeticus pT7-Opto pellicle, fluorescence scan, 0.1% arabinose of 1.8 fold; a change in mCherry blue light response from dark to bright, flow cytometry, 96-well plate, 0.1% (w/v) arabinose of 2.57 fold. In test [1], this molecule registered a change in mCherry blue light response from dark to bright, flow cytometry, 96-well plate, no arabinose of 2.57 fold; a fold change of mCherry between dark and light states, flow cytometry, 96-well plate, 1% (w/v) arabinose of 1.33 fold; a fold change of mCherry between dark and light states, flow cytometry, 96-well plate, 10% (w/v) arabinose of 1.04 fold; a mCherry expression, blue light against dark culture, flow cytometry, K. rhaeticus pT7-Opto, 0.1% arabinose of 7.5 fold. For the same molecule, in test [2], the increase of Tyr1 production (initial rate of melanin production, OD405) in blue light, strain Opto-T7RNAP(563-F1) with pT7 tyr1, 1 mg/mL arabinose amounted to 5.35 fold and the increase of mCherry production in response to blue light, plate reader, strain Opto-T7RNAP(563-F1) with pT7 mCherry, 10 mg/mL arabinose was 7.4 fold.
